# Experimental data: patent publication US20140087995A1 (published 2014)
# Numbered stars: 1 amine (or outer) side, 2 acyl side, 3 side chain; on linkers, the order of the positions; unused ones are H or OH. Bridge positions count the residues as written; N and C are the ends. Side chains are listed from the residue outwards. Ends that are not written are not given here. * marks the point of attachment. C20 diacid = O=C(O)CCCCCCCCCCCCCCCCCCC(=O)*; γGlu = O=C(O)[C@H](CCC(=O)[*:2])N[*:1]; AEEA = NCCOCCOCC(=O)O
# T1: human calcitonin receptor (human, UniProt P30988 25-474)
# T1 construct: whole, on cells; Assay used cell membranes of the transfected BHK cells; also called hCTR; hCT
# T1 sequence (looked up): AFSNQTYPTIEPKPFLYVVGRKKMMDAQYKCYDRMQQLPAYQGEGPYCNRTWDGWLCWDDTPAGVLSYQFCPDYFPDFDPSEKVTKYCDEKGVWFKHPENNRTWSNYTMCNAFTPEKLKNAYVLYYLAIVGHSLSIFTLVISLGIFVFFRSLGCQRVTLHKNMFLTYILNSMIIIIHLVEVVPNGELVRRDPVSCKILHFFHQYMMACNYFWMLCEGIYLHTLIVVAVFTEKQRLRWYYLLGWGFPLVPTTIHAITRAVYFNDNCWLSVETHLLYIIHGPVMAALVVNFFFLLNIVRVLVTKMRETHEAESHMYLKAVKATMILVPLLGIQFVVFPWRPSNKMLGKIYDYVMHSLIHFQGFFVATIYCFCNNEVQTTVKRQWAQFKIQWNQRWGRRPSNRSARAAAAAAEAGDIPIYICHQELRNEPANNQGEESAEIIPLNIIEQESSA
# Assays:
# [1] = target: T1, human calcitonin receptor; test: SPA radioligand competition (125I-calcitonin), membranes of BHK cells with human calcitonin receptor
# Summary of the method: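 BHK hCTR membranes 35 ng/μL + SPA beads 0.05 mg/well; buffer 50 mM Hepes pH 7.4, 1 mM CaCl2, 5 mM MgCl₂, 0.1% OA, 0.02% Tween20. 120 min, 25° C., shaking. Scintillation count; IC50 by one-site binding competition.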
# [2] = target: T1, human calcitonin receptor; test: ratio IC50 hCTR / IC50 hAmylin-R of the two SPA competition assays; reference: human amylin receptor
# Summary of the method: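 Scintillation proximity competition binding on cell membranes at 35 ng/μL with SPA beads, in 50 mM Hepes pH 7.4, 1 mM CaCl2, 5 mM MgCl₂, 0.1% OA, 0.02% Tween20. Incubated 120 min at 25° C with shaking. IC₅₀ from one-site competition fit.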
Binder,IC50 [1] [nM],Ratio hCT/hAmylin binding [2]
"{C20 diacid-γGlu}-KCNTATCATQRLAHFLRHSSPNFGAIPSSTNVGSETY-NH2 (disulfide 2-7; SMILES CC[C@H](C)[C@H](NC(=O)[C@H](C)NC(=O)CNC(=O)[C@H](Cc1ccccc1)NC(=O)[C@H](CC(N)=O)NC(=O)[C@@H]1CCCN1C(=O)[C@H](CO)NC(=O)[C@H](CO)NC(=O)[C@H](Cc1c[nH]cn1)NC(=O)[C@H](CCCNC(=N)N)NC(=O)[C@H](CC(C)C)NC(=O)[C@H](Cc1ccccc1)NC(=O)[C@H](Cc1c[nH]cn1)NC(=O)[C@H](C)NC(=O)[C@H](CC(C)C)NC(=O)[C@H](CCCNC(=N)N)NC(=O)[C@H](CCC(N)=O)NC(=O)[C@@H](NC(=O)[C@H](C)NC(=O)[C@@H]1CSSC[C@H](NC(=O)[C@H](CCCCN)NC(=O)CC[C@H](NC(=O)CCCCCCCCCCCCCCCCCCC(=O)O)C(=O)O)C(=O)N[C@@H](CC(N)=O)C(=O)N[C@@H]([C@@H](C)O)C(=O)N[C@@H](C)C(=O)N[C@@H]([C@@H](C)O)C(=O)N1)[C@@H](C)O)C(=O)N1CCC[C@H]1C(=O)N[C@@H](CO)C(=O)N[C@@H](CO)C(=O)N[C@H](C(=O)N[C@@H](CC(N)=O)C(=O)N[C@H](C(=O)NCC(=O)N[C@@H](CO)C(=O)N[C@@H](CCC(=O)O)C(=O)N[C@H](C(=O)N[C@@H](Cc1ccc(O)cc1)C(N)=O)[C@@H](C)O)C(C)C)[C@@H](C)O, Synthetic analogue; also called compound 30)",21.6,23.6
"K([AEEA-AEEA-γGlu-C20 diacid])CNTATCATQRLANFLRHSSPNFGAIPSSTNVGSETY-NH2 (disulfide 2-7; N-terminus assumed; SMILES CC[C@H](C)[C@H](NC(=O)[C@H](C)NC(=O)CNC(=O)[C@H](Cc1ccccc1)NC(=O)[C@H](CC(N)=O)NC(=O)[C@@H]1CCCN1C(=O)[C@H](CO)NC(=O)[C@H](CO)NC(=O)[C@H](Cc1c[nH]cn1)NC(=O)[C@H](CCCNC(=N)N)NC(=O)[C@H](CC(C)C)NC(=O)[C@H](Cc1ccccc1)NC(=O)[C@H](CC(N)=O)NC(=O)[C@H](C)NC(=O)[C@H](CC(C)C)NC(=O)[C@H](CCCNC(=N)N)NC(=O)[C@H](CCC(N)=O)NC(=O)[C@@H](NC(=O)[C@H](C)NC(=O)[C@@H]1CSSC[C@H](NC(=O)[C@@H](N)CCCCNC(=O)COCCOCCNC(=O)COCCOCCNC(=O)CC[C@H](NC(=O)CCCCCCCCCCCCCCCCCCC(=O)O)C(=O)O)C(=O)N[C@@H](CC(N)=O)C(=O)N[C@@H]([C@@H](C)O)C(=O)N[C@@H](C)C(=O)N[C@@H]([C@@H](C)O)C(=O)N1)[C@@H](C)O)C(=O)N1CCC[C@H]1C(=O)N[C@@H](CO)C(=O)N[C@@H](CO)C(=O)N[C@H](C(=O)N[C@@H](CC(N)=O)C(=O)N[C@H](C(=O)NCC(=O)N[C@@H](CO)C(=O)N[C@@H](CCC(=O)O)C(=O)N[C@H](C(=O)N[C@@H](Cc1ccc(O)cc1)C(N)=O)[C@@H](C)O)C(C)C)[C@@H](C)O, Synthetic analogue; also called compound 25)",43.4,56.5
"K([AEEA-γGlu-C20 diacid])CNTATCATQRLANFLRHSSPNFGAIPSSTNVGSETY-NH2 (disulfide 2-7; N-terminus assumed; SMILES CC[C@H](C)[C@H](NC(=O)[C@H](C)NC(=O)CNC(=O)[C@H](Cc1ccccc1)NC(=O)[C@H](CC(N)=O)NC(=O)[C@@H]1CCCN1C(=O)[C@H](CO)NC(=O)[C@H](CO)NC(=O)[C@H](Cc1c[nH]cn1)NC(=O)[C@H](CCCNC(=N)N)NC(=O)[C@H](CC(C)C)NC(=O)[C@H](Cc1ccccc1)NC(=O)[C@H](CC(N)=O)NC(=O)[C@H](C)NC(=O)[C@H](CC(C)C)NC(=O)[C@H](CCCNC(=N)N)NC(=O)[C@H](CCC(N)=O)NC(=O)[C@@H](NC(=O)[C@H](C)NC(=O)[C@@H]1CSSC[C@H](NC(=O)[C@@H](N)CCCCNC(=O)COCCOCCNC(=O)CC[C@H](NC(=O)CCCCCCCCCCCCCCCCCCC(=O)O)C(=O)O)C(=O)N[C@@H](CC(N)=O)C(=O)N[C@@H]([C@@H](C)O)C(=O)N[C@@H](C)C(=O)N[C@@H]([C@@H](C)O)C(=O)N1)[C@@H](C)O)C(=O)N1CCC[C@H]1C(=O)N[C@@H](CO)C(=O)N[C@@H](CO)C(=O)N[C@H](C(=O)N[C@@H](CC(N)=O)C(=O)N[C@H](C(=O)NCC(=O)N[C@@H](CO)C(=O)N[C@@H](CCC(=O)O)C(=O)N[C@H](C(=O)N[C@@H](Cc1ccc(O)cc1)C(N)=O)[C@@H](C)O)C(C)C)[C@@H](C)O, Synthetic analogue; also called compound 26)",25.3,47.5

# Now those with a lower IC50 [1], led by results:
IC50 [1] [nM],Ratio hCT/hAmylin binding [2],Binder
12.9,10.8,"K([AEEA-γGlu-C20 diacid])CNTATCATQRLANFLRHSSPNFGAIPSSTPVGSNTY-NH2 (disulfide 2-7; N-terminus assumed; SMILES CC[C@H](C)[C@H](NC(=O)[C@H](C)NC(=O)CNC(=O)[C@H](Cc1ccccc1)NC(=O)[C@H](CC(N)=O)NC(=O)[C@@H]1CCCN1C(=O)[C@H](CO)NC(=O)[C@H](CO)NC(=O)[C@H](Cc1c[nH]cn1)NC(=O)[C@H](CCCNC(=N)N)NC(=O)[C@H](CC(C)C)NC(=O)[C@H](Cc1ccccc1)NC(=O)[C@H](CC(N)=O)NC(=O)[C@H](C)NC(=O)[C@H](CC(C)C)NC(=O)[C@H](CCCNC(=N)N)NC(=O)[C@H](CCC(N)=O)NC(=O)[C@@H](NC(=O)[C@H](C)NC(=O)[C@@H]1CSSC[C@H](NC(=O)[C@@H](N)CCCCNC(=O)COCCOCCNC(=O)CC[C@H](NC(=O)CCCCCCCCCCCCCCCCCCC(=O)O)C(=O)O)C(=O)N[C@@H](CC(N)=O)C(=O)N[C@@H]([C@@H](C)O)C(=O)N[C@@H](C)C(=O)N[C@@H]([C@@H](C)O)C(=O)N1)[C@@H](C)O)C(=O)N1CCC[C@H]1C(=O)N[C@@H](CO)C(=O)N[C@@H](CO)C(=O)N[C@H](C(=O)N1CCC[C@H]1C(=O)N[C@H](C(=O)NCC(=O)N[C@@H](CO)C(=O)N[C@@H](CC(N)=O)C(=O)N[C@H](C(=O)N[C@@H](Cc1ccc(O)cc1)C(N)=O)[C@@H](C)O)C(C)C)[C@@H](C)O, Synthetic analogue; also called compound 49)"
9.73,12.3,"{C20 diacid-γGlu}-KCNTATCATQRLAEFLRHSSPNFGAIPSSTNVGSETY-NH2 (disulfide 2-7; SMILES CC[C@H](C)[C@H](NC(=O)[C@H](C)NC(=O)CNC(=O)[C@H](Cc1ccccc1)NC(=O)[C@H](CC(N)=O)NC(=O)[C@@H]1CCCN1C(=O)[C@H](CO)NC(=O)[C@H](CO)NC(=O)[C@H](Cc1c[nH]cn1)NC(=O)[C@H](CCCNC(=N)N)NC(=O)[C@H](CC(C)C)NC(=O)[C@H](Cc1ccccc1)NC(=O)[C@H](CCC(=O)O)NC(=O)[C@H](C)NC(=O)[C@H](CC(C)C)NC(=O)[C@H](CCCNC(=N)N)NC(=O)[C@H](CCC(N)=O)NC(=O)[C@@H](NC(=O)[C@H](C)NC(=O)[C@@H]1CSSC[C@H](NC(=O)[C@H](CCCCN)NC(=O)CC[C@H](NC(=O)CCCCCCCCCCCCCCCCCCC(=O)O)C(=O)O)C(=O)N[C@@H](CC(N)=O)C(=O)N[C@@H]([C@@H](C)O)C(=O)N[C@@H](C)C(=O)N[C@@H]([C@@H](C)O)C(=O)N1)[C@@H](C)O)C(=O)N1CCC[C@H]1C(=O)N[C@@H](CO)C(=O)N[C@@H](CO)C(=O)N[C@H](C(=O)N[C@@H](CC(N)=O)C(=O)N[C@H](C(=O)NCC(=O)N[C@@H](CO)C(=O)N[C@@H](CCC(=O)O)C(=O)N[C@H](C(=O)N[C@@H](Cc1ccc(O)cc1)C(N)=O)[C@@H](C)O)C(C)C)[C@@H](C)O, Synthetic analogue; also called compound 22)"
